Literature values as cited in PMC6105697.

Biological target: NKG2D (Homo sapiens) (UniProt P26718)
Experiment: surface plasmon resonance

UniProt P26718, sequence (P26718 whole entry): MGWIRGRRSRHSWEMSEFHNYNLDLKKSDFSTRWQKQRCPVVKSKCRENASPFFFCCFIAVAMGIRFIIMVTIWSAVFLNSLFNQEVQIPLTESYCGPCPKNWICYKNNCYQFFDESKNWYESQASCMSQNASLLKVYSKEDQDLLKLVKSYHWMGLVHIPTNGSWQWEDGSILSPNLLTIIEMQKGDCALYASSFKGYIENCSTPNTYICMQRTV

Kd: 0.0155 µM
Substance: ULBP0602 (from UniProt Q5VY80)
